Numbering of substitutions follows the chain as printed. In names and notes the source's numbering stands.
B1: full-length malonyl-CoA reductase from Roseiflexus castenholzii (RfxMCR) (enzyme, Roseiflexus castenholzii DSM 13941, UniProt A7NN59 1-1229, looked up)
chain: MSTVRRLEGKVALITGGAGNIGEVITRRFLAEGATVVITGRNAEKLAVYRRRLIDEERVAPERVVALRMDGSDIAQVRAGVAQIVHGGTDVPIPLHRIDILVNNAGSAGPRRRLVDIPLEPSEVQPPDSETLAQAVGNLVGITWNLTRAAAPHMPSGSSVINISTIFSRTDYYGRIAYVAPKAALNALSDGLARELGVRGIRVNTIYPGPIESERIYTMFQAMDALKGQPEGDTASGFLRMMRLSRIDQNGEVVKRFPSPVDVANTAVFLASDESAAFTGHAFEVTHGMEVPTESRTTFVSRPGLRSVDATGKVILICAGDQVDDAVALADTLRSCRATVVIGFRDPRALEKASVLLREPRHALAADMYGRPTMTAEARLVRLDPLDPRAAAQTLEQIHAELGAIHHAVVLPGQSRHAPSASLIEVDDQVVERFLHQELVGTIALARELARFWEEYPSGSSMHRVLFVSNPDDQQGNQYSHILRAAVEQLVRVWRHESEYDSVNPAHQQEGQSSAAVWANQLIRYVNNEMANLDFTCAWVAKLLGSDRRIAEINLYLPEEIVGTIGVHNPGFGWAESLFGLHMGKVALITGGSAGIGGQIGRLLALSGAHVMLAARNADQLEQMRASIVREVRDASYPDAESRVAIFPGSDVSDIDGLERLVNHTVRVFGKVDYLINNAGIAGAEEMVIDMPVDAWRHTLRANLISNYALLRRLAPQMKAAGGAYVLNVSSYFGGEKYVAIPYPNRSDYAVSKAGQRAMVESLARFLGPEIQINAIAPGPVEGERLKGAGSRPGLFMRRARLILENKRLNEVFAALLAARHEGATIADLLPDLFANDIQSIANSAAMPAPLRRLATMLRETSDAGGSAQSYLMNATIARKLLNRLENGGYITLHDRRALTVEPPEPFFTEAQIEREAIKVRDGILGMLHLQRMPTEFDVALATVFYLADRNVTGETFHPSGGLRFERTVTEGELFGKPGQQRLERLKGSVVYLIGEHLRQHLVLLARTFLDEIHVARVVLLTETTQAATDLAAELSDYEAAGRFVVIPTCGDIEGGIDRAMAEYGRPGPVISTPFRPLPDRALSARNGDWSSVLTTAEFEELVEQQITHHFRVARKAGLIEGANVTLVTPPTSARSTSEEFALANFVKTTLHALTATAGAESERTVPHVPVNQVDLTRRARSEEPRTPSEEEEELQRFVNAVLLTSAPLPTPLESRYRARIYRGNAITV
notes: malonyl-CoA reductase (MCR) of Roseiflexus castenholzii DSM 13941, gene Rcas_2929, full length Met1-Val1229; Cloned into pET20b at XhoI and NdeI; also called full-length RfxMCR; wild-type RfxMCR
B2: RfxMCR triple mutant W574A E576A F579A (enzyme, Roseiflexus castenholzii DSM 13941)
chain: B1 chain with W574A, E576A, F579A
notes: malonyl-CoA reductase (MCR) of Roseiflexus castenholzii DSM 13941, gene Rcas_2929, with W574A, E576A and F579A; source: E. coli BL21(DE3), purified following the same procedure as the wild-type protein
B3: RfxMCR single mutant E576A (enzyme, Roseiflexus castenholzii DSM 13941)
chain: B1 chain with E576A
notes: malonyl-CoA reductase (MCR) of Roseiflexus castenholzii DSM 13941, gene Rcas_2929, with E576A; source: E. coli BL21(DE3), purified following the same procedure as the wild-type protein
B4: RfxMCR double mutant W574A E576A (enzyme, Roseiflexus castenholzii DSM 13941)
chain: B1 chain with W574A, E576A
notes: malonyl-CoA reductase (MCR) of Roseiflexus castenholzii DSM 13941, gene Rcas_2929, with W574A and E576A; source: E. coli BL21(DE3), purified following the same procedure as the wild-type protein
B5: RfxMCR-N (Met1-Phe572) (domain or fragment, Roseiflexus castenholzii DSM 13941, UniProt A7NN59 1-572, looked up)
chain: MSTVRRLEGKVALITGGAGNIGEVITRRFLAEGATVVITGRNAEKLAVYRRRLIDEERVAPERVVALRMDGSDIAQVRAGVAQIVHGGTDVPIPLHRIDILVNNAGSAGPRRRLVDIPLEPSEVQPPDSETLAQAVGNLVGITWNLTRAAAPHMPSGSSVINISTIFSRTDYYGRIAYVAPKAALNALSDGLARELGVRGIRVNTIYPGPIESERIYTMFQAMDALKGQPEGDTASGFLRMMRLSRIDQNGEVVKRFPSPVDVANTAVFLASDESAAFTGHAFEVTHGMEVPTESRTTFVSRPGLRSVDATGKVILICAGDQVDDAVALADTLRSCRATVVIGFRDPRALEKASVLLREPRHALAADMYGRPTMTAEARLVRLDPLDPRAAAQTLEQIHAELGAIHHAVVLPGQSRHAPSASLIEVDDQVVERFLHQELVGTIALARELARFWEEYPSGSSMHRVLFVSNPDDQQGNQYSHILRAAVEQLVRVWRHESEYDSVNPAHQQEGQSSAAVWANQLIRYVNNEMANLDFTCAWVAKLLGSDRRIAEINLYLPEEIVGTIGVHNPGF
notes: malonyl-CoA reductase (MCR) of Roseiflexus castenholzii DSM 13941, gene Rcas_2929, residues Met1-Phe572 (SDR1 and SDR2 domains); Cloned into pET28a at XhoI and NcoI; also called N-terminal fragment; SDR1-SDR2

What was measured:
[1] = target: the molecule itself; test: SEC; gel filtration on HiLoad 16/600 Superdex 200PG; 25 mM Tris-HCl pH 8.0, 150 mM NaCl
[2] = substrate: CC(C)(COP(=O)(O)OP(=O)(O)OC[C@H]1O[C@@H](n2cnc3c(N)ncnc32)[C@H](O)[C@@H]1OP(=O)(O)O)[C@@H](O)C(=O)NCCC(=O)NCCSC(=O)CC(=O)O; test: purified protein; type: biochemical, Roseiflexus castenholzii; settings: 0.4 mM NADPH, 5 mM MgCl2, 100 mM Tris-HCl pH 8.0, 150 mM NaCl, 50°C, apparent, overall two-step reduction
[3] = target: the molecule itself; test: crystal structure; RfxMCR-N with NADP+ and MSA; 1 M sodium malonate pH 5.0, 0.1 M sodium acetate pH 4.5, 3% PEG 20,000, 16°C; P6(5)22, one monomer in the asymmetric unit, dimer by crystal packing; 2.0 Å

Row | Protein | stoichiometry N [1] | other results
1 | B1 | 2 | Km [2]: 0.38 ± 0.08 mM; kcat [2]: 5.65 ± 0.57 s⁻¹; kcat/Km [2]: 14800 ± 1540 M⁻¹ s⁻¹
2 | B2 | 2 | –
3 | B3 | 2 | –
4 | B4 | 2 | –
5 | B5 | – | stoichiometry N [3]: 2

— publication PMC10470521, “Structural basis of a bi-functional malonyl-CoA reductase (MCR) from the photosynthetic green non-sulfur bacterium Roseiflexus castenholzii” (mBio, 2023)
